Results as given in article PMC4987395.

Biological target: Arabidopsis thaliana plasmodesmata-located protein 1 (PDLP1) fused to RFP (Arabidopsis thaliana) (UniProt Q8GXV7)
Experiment: FRET or BRET; FRET-FLIM: GFP on the MP as donor, RFP on PDLP1 as acceptor; co-expressed by agroinfiltration in N. benthamiana leaves, measured at spots in plasmodesmata; donor fluorescence lifetime by time-correlated single-photon counting

Chain of UniProt Q8GXV7 (Q8GXV7 22-303): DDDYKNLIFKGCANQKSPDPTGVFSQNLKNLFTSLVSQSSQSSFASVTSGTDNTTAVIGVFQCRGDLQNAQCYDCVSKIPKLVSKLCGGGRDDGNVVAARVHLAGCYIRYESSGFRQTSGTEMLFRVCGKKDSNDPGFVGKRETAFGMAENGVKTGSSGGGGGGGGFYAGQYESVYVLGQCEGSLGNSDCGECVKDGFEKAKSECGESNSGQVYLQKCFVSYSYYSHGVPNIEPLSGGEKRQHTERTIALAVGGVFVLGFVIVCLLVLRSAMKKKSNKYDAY

Row | Substance | FRET efficiency
1 | cowpea mosaic virus (CPMV) movement protein (48K) fused at its C-terminus to GFP (natural protein) | 7.5%
2 | grapevine fanleaf virus (GFLV) 2B movement protein with GFP fused at its N-terminus (natural protein) | 6.7%
